According to patent US20150284477:
Residue numbers refer to the chain shown, from its start. Names and notes keep the numbering of the source.

Tests used:
[1] = target: T1, LAETG motif-bearing substrate (not fully specified)
T1 chain: LAETG

[2] = target: T2, LPETG (SEQ ID NO: 4) substrate (not fully specified)
T2 chain: LPETG

[3] = target: T3, GGG-COOH
T3 chain: GGG

[4] = target: LPESG motif-bearing substrate

B1: sortase 2A.3.5 (protein)
chain: QAKPQIPKDKSKVAGYIEIPDADIKEPVYPGPATREQLNRGVSFAEENESLDDQNISIAGHTFIDRPNYQFTNLKAAKKGSMVYFKVGNETRKYKMTSIRNVRPTAVEILDEQKGKDKQLTLFTCDDYNEETGVWETRKIFVATEVK
Km, LxExG (uM); column 2A.3.5/2A [1]: 7160 µM
Km, LxExG (uM); column 2A.3.5/wt [2]: 4110 µM

B2: sortase 2A.6C (protein)
chain: B1 chain with A45H, K79P, K93I, N101K, I109V, F123V
Km, GGG (uM); column 2A.6C/2A [3]: 642 µM
Km, LxExG (uM); column 2A.6C/2A [1]: 343 µM
Km, LxExG (uM); column 2A.6C/wt [2]: 1980 µM

B3: sortase 4S.4 (protein)
chain: B1 chain with A45V, A59T, F63S, R103K, I109V, F123V
Km, LxExG (uM); column 4S.4/4S [4]: 1410 µM
Km, LxExG (uM); column 4S.4/wt [2]: 339 µM

B4: sortase 2A.5 (protein)
chain: B1 chain with R40H, A45H, K79I, I109V, F123V
Km, GGG (uM); column 2A.5/2A [3]: 2810 µM
Km, LxExG (uM); column 2A.5/2A [1]: 433 µM
Km, LxExG (uM); column 2A.5/wt [2]: 4900 µM

B5: sortase 2A.6A (protein)
chain: B1 chain with A45H, K79V, I109V, F123V
Km, GGG (uM); column 2A.6A/2A [3]: 1040 µM
Km, LxExG (uM); column 2A.6A/2A [1]: 608 µM
Km, LxExG (uM); column 2A.6A/wt [2]: 3290 µM

B6: sortase 4S.6B (protein)
chain: B1 chain with N39D, A45V, A59S, F63A, K75P, R103K, I109V, F123V, E130P
Km, GGG (uM); column 4S.6B/4S [3]: 15700 µM
Km, LxExG (uM); column 4S.6B/4S [4]: 312 µM
Km, LxExG (uM); column 4S.6B/wt [2]: 238 µM

B7: sortase 4S.3.5 (protein)
chain: B1 chain with A45T, A59T, R103K, I109V, F123V
Km, LxExG (uM); column 4S.3.5/4S [4]: 7310 µM

B8: sortase 2A.4 (protein)
chain: B1 chain with A45H, F123V
Km, LxExG (uM); column 2A.4/2A [1]: 3250 µM
Km, LxExG (uM); column 2A.4/wt [2]: 11700 µM

B9: sortase 4S.5 (protein)
chain: B1 chain with N39D, A45V, A59T, F63A, K75R, R103K, I109V, F123V
Km, GGG (uM); column 4S.5/4S [3]: 26700 µM
Km, LxExG (uM); column 4S.5/4S [4]: 76 µM
Km, LxExG (uM); column 4S.5/wt [2]: 12.2 µM

B10: sortase 2A.6B (protein)
chain: B1 chain with R40K, A45H, K79V, N101K, I109V, F123V
Km, GGG (uM); column 2A.6B/2A [3]: 642 µM
Km, LxExG (uM); column 2A.6B/2A [1]: 310 µM

B11: sortase 4S.6C (protein)
chain: B1 chain with N39D, A45V, A59T, F63A, K75R, R103K, I109V, F123V, E130F
Km, GGG (uM); column 4S.6C/4S [3]: 36000 µM
Km, LxExG (uM); column 4S.6C/4S [4]: 156 µM
Km, LxExG (uM); column 4S.6C/wt [2]: 16.1 µM

B12: sortase 4S.6A (protein)
chain: B1 chain with N39D, A45V, A59T, F63A, K75G, R103K, I109V, F123V, E130V
Km, GGG (uM); column 4S.6A/4S [3]: 4950 µM
Km, LxExG (uM); column 4S.6A/4S [4]: 102 µM
Km, LxExG (uM); column 4S.6A/wt [2]: 1290 µM

B13: P94S/D160N/K196T (protein)
chain: MQAKPQIPKDKSKVAGYIEIPDADIKEPVYPGPATSEQLNRGVSFAEENESLDDQNISIAGHTFIDRPNYQFTNLKAAKKGSMVYFKVGNETRKYKMTSIRNVKPTDVEVLDEQKGKDKQLTLITCDDYNEKTGVWETRKIFVATEVKLEHHHHHH
Km GGG-COOH [3]: 1830 ± 330 µM
Km LPETG [2]: 560 µM

B14: srtA D160N (protein)
chain: B13 chain with S36P, T138K
Km GGG-COOH [3]: 330 µM
Km LPETG [2]: 3700 µM

B15: P94S/D165A (clone 4.3) (protein)
chain: B13 chain with N102D, D107A, T138K
Km GGG-COOH [3]: 1700 ± 400 µM
Km LPETG [2]: 1100 µM

B16: srtA K196T (protein)
chain: B13 chain with S36P, N102D
Km GGG-COOH [3]: 200 µM
Km LPETG [2]: 3300 µM

B17: srtA P94S (protein)
chain: B13 chain with N102D, T138K
Km GGG-COOH [3]: 650 µM
Km LPETG [2]: 2500 µM

B18: P94R/D160N/D165A/K190E/K196T pentamutant sortase A (protein)
chain: B13 chain with S36R, D107A, K132E
Km GGG against the tetramutant [3]: the Km GGG of this mutant improved by 1.8-fold
Km GGG against wild type srtA [3]: a 20-fold higher Km GGG
Km GGG-COOH [3]: 2900 ± 200 µM
Km, GGG (uM); column 5mut/wt [3]: 2990 µM
Km, LxExG (uM); column 5mut/2A [1]: 6160 µM
Km, LxExG (uM); column 5mut/4S [4]: 672 µM
KM LPETG against the tetramutant [2]: the kcat and KM LPETG were not altered by more than a factor of 1.3-fold
Km LPETG [2]: 230 µM
Km, LxExG (uM); column 5mut/wt [2]: 208 µM

B19: D160N/K190E/K196T (clone 4.2) (protein)
chain: B13 chain with S36P, K132E
Km GGG-COOH [3]: 1200 ± 200 µM
Km LPETG [2]: 1600 µM

B20: wild type S. aureus sortase A (truncated, His tagged) (protein)
chain: B13 chain with S36P, N102D, T138K
Km GGG-COOH [3]: 140 µM
Km, GGG (uM); column wt/wt [3]: 291 µM
Km LPETG [2]: 7600 µM
Km, LxExG (uM); column wt/wt [2]: 5180 µM

B21: P94S/D160N/D165A (protein)
chain: B13 chain with D107A, T138K
Km GGG-COOH [3]: 1750 ± 250 µM
Km LPETG [2]: 510 µM

B22: srtA D165A (protein)
chain: B13 chain with S36P, N102D, D107A, T138K
Km GGG-COOH [3]: 1000 ± 480 µM
Km LPETG [2]: 3600 µM

B23: P94S/D160N/D165A/K196T (protein)
chain: B13 chain with D107A
Km GGG-COOH [3]: 4800 ± 700 µM
Km LPETG [2]: 170 µM
LPETG recognition (Km LPETG) against wild type SrtA [2]: 45-fold improved LPETG (SEQ ID NO: 4) recognition
